Measurements from the Human Domainome abundance scans (Beltran et al. 2025).
± gives the uncertainty stated by the source.

B1: POU domain, class 5, transcription factor 1, residues 134 to 212; numbered along this chain, Q01860 (parent)
chain: EESQDIKALQKELEQFAKLLKQKRITLGYTQADVGLTLGVLFGKVFSQTTICRFEALQLSFKNMCKLRPLLQKWVEEAD

Variants of: B1
Assay: abundance fitness (aPCA) (normalised: wild type 0, dead -1); higher = more abundant; growth selection in yeast, the domain comes from the species named
Details: Homo sapiens

Row | Variant | abundance fitness
1 | F61A | -0.147 ± 0.12
2 | F61E | -0.8 ± 0.21
3 | F61R | -0.422 ± 0.1
4 | F61Q | -0.111 ± 0.17
5 | F61I | 0.132 ± 0.24
6 | F61V | 0.031 ± 0.097
7 | F61L | 0.036 ± 0.12
8 | F61Y | -0.09 ± 0.5
9 | F61G | -0.466 ± 0.092
10 | F61T | 0.063 ± 0.17
11 | F61W | -0.035 ± 0.091
12 | F61P | 0.202 ± 0.13
13 | F61C | -0.441 ± 0.31
14 | F61K | -0.206 ± 0.16
15 | F61M | 0.04 ± 0.11
16 | F61N | -0.275 ± 0.29
17 | C65A | -0.381 ± 0.13
18 | C65N | -0.343 ± 0.29
19 | C65M | -0.04 ± 0.14
20 | C65I | 0.246 ± 0.2
21 | C65T | -0.403 ± 0.23
22 | C65K | -0.271 ± 0.22
23 | C65V | -0.178 ± 0.097
24 | C65R | -0.18 ± 0.073

Row | Variant | abundance fitness
25 | C65S | -0.393 ± 0.15
26 | C65L | 0.14 ± 0.077
27 | C65W | -0.289 ± 0.12
28 | C65D | 0.155 ± 0.16
29 | C65Q | 0.074 ± 0.13
30 | C65G | -0.691 ± 0.12
31 | C65Y | -0.449 ± 0.32
32 | K62L | -0.579 ± 0.27
33 | K62T | -0.055 ± 0.19
34 | K62D | 0.201 ± 0.17
35 | K62C | -0.489 ± 0.44
36 | K62V | -0.24 ± 0.14
37 | K62I | -0.238 ± 0.4
38 | K62P | -0.08 ± 0.24
39 | K62Q | 0.046 ± 0.24
40 | K62H | -0.19 ± 0.36
41 | K62M | 0.192 ± 0.23
42 | K62R | -0.143 ± 0.083
43 | K62G | -0.146 ± 0.083
44 | K62S | 0.041 ± 0.13
45 | K62E | 0.038 ± 0.15
46 | M64L | -0.333 ± 0.11
47 | M64K | -0.279 ± 0.13
48 | M64V | -0.675 ± 0.15

Row | Variant | abundance fitness
49 | M64T | -0.496 ± 0.14
50 | M64R | -0.871 ± 0.15
51 | M64F | -0.8 ± 0.47
52 | M64Y | -1.06 ± 0.5
53 | M64Q | -0.802 ± 0.23
54 | M64E | -0.763 ± 0.23
55 | M64D | -0.816 ± 0.32
56 | M64W | -0.667 ± 0.22
57 | M64G | -0.621 ± 0.12
58 | M64P | -0.604 ± 0.27
59 | M64N | -0.608 ± 0.23
60 | M64C | -0.739 ± 0.33
61 | M64A | -0.251 ± 0.11
62 | K66V | -0.365 ± 0.15
63 | K66T | -0.187 ± 0.16
64 | K66S | 0.003 ± 0.12
65 | K66P | -0.51 ± 0.27
66 | K66A | -0.011 ± 0.097
67 | K66M | 0.113 ± 0.12
68 | K66N | 0.209 ± 0.32
69 | K66R | -0.01 ± 0.093
70 | K66Q | -0.051 ± 0.19
71 | K66D | -0.477 ± 0.3
72 | K66F | 0.04 ± 0.28

Row | Variant | abundance fitness
73 | K66G | -0.185 ± 0.091
74 | S60R | -0.556 ± 0.14
75 | S60Q | -0.415 ± 0.36
76 | S60D | 0.197 ± 0.15
77 | S60W | -0.381 ± 0.31
78 | S60L | -0.265 ± 0.21
79 | S60P | 0.084 ± 0.15
80 | S60E | -0.173 ± 0.15
81 | S60V | -0.843 ± 0.25
82 | S60G | -0.268 ± 0.09
83 | S60I | -0.284 ± 0.5
84 | L67M | -0.052 ± 0.16
85 | L67C | -0.363 ± 0.27
86 | L67T | -0.494 ± 0.29
87 | L67Q | -0.756 ± 0.39
88 | L67R | -0.575 ± 0.12
89 | L67A | -0.612 ± 0.16
90 | L67S | -0.608 ± 0.22
91 | L67E | -0.289 ± 0.17
92 | L67N | 0.553 ± 0.28
93 | L67W | -0.851 ± 0.26
94 | P69Q | -0.618 ± 0.43
95 | P69K | -0.304 ± 0.18
96 | P69A | -0.252 ± 0.12

Row | Variant | abundance fitness
97 | P69W | -0.999 ± 0.29
98 | P69R | -0.613 ± 0.13
99 | P69T | -0.652 ± 0.2
100 | P69L | -0.351 ± 0.13
101 | P69G | -0.085 ± 0.13
102 | P69N | -0.008 ± 0.27
103 | P69H | -0.208 ± 0.28
104 | P69F | -0.473 ± 0.3
105 | P69V | -0.414 ± 0.099
106 | P69M | -0.662 ± 0.21
107 | Q72E | 0.342 ± 0.091
108 | Q72G | -0.302 ± 0.11
109 | Q72A | -0.354 ± 0.13
110 | Q72C | -0.09 ± 0.17
111 | Q72D | -0.379 ± 0.24
112 | Q72H | -0.039 ± 0.28
113 | N63C | -0.31 ± 0.24
114 | N63Y | -0.387 ± 0.5
115 | N63H | -0.183 ± 0.31
116 | N63L | -0.336 ± 0.2
117 | N63G | -0.314 ± 0.1
118 | N63V | -0.305 ± 0.13
119 | N63A | 0.045 ± 0.11
120 | N63S | 0.299 ± 0.11

Row | Variant | abundance fitness
121 | N63R | 0.037 ± 0.095
122 | N63D | -0.093 ± 0.24
123 | N63E | 0.126 ± 0.14
124 | N63T | -0.303 ± 0.22
125 | N63K | 0.172 ± 0.23
126 | N63W | -0.832 ± 0.39
127 | N63Q | -0.236 ± 0.24
128 | N63M | -0.088 ± 0.33
129 | N63F | -0.2 ± 0.43
130 | R68P | -0.734 ± 0.33
131 | R68V | -0.609 ± 0.18
132 | R68Q | -0.384 ± 0.16
133 | R68Y | 0.356 ± 0.19
134 | R68T | -0.436 ± 0.19
135 | R68E | -0.421 ± 0.26
136 | R68S | -0.535 ± 0.25
137 | R68L | -0.222 ± 0.1
138 | R68A | -0.265 ± 0.14
139 | R68W | 0 ± 0.11
140 | R68D | -0.621 ± 0.4
141 | R68K | -0.154 ± 0.2
142 | R68G | -0.797 ± 0.23
143 | L70V | -0.406 ± 0.16
144 | L70P | -0.364 ± 0.22

Row | Variant | abundance fitness
145 | L70C | -0.171 ± 0.29
146 | L70Y | 0.262 ± 0.17
147 | L70W | -0.442 ± 0.22
148 | L70F | 0.145 ± 0.26
149 | L70R | -0.653 ± 0.21
150 | L70T | -0.325 ± 0.23
151 | L70G | -0.574 ± 0.2
152 | L70Q | 0.143 ± 0.29
153 | L71S | -0.911 ± 0.26
154 | L71H | -0.207 ± 0.24
155 | L71E | -0.344 ± 0.16
156 | L71T | -0.246 ± 0.16
157 | L71F | -0.562 ± 0.29
158 | L71W | -0.323 ± 0.15
159 | L71V | -0.728 ± 0.17
160 | L71A | -0.51 ± 0.13
161 | L71C | -0.474 ± 0.2
162 | L71Y | -0.435 ± 0.28
163 | L71P | -0.07 ± 0.17
164 | L71D | -0.869 ± 0.42
165 | L71M | -0.251 ± 0.13
166 | L71R | -0.509 ± 0.11
167 | L71Q | -0.658 ± 0.27
